Results taken from patent publication US10113152B1, “Variant polypeptides capable of aminating aliphatic alpha keto acids” (AbbVie Inc., priority 2014, dated 2018).

Assays:
[1] = HPLC analysis of the percentage of (S)-enantiomer in the LCAA reaction product; format: biochemical; conditions: LCAA product of the Example 1 reaction, FIG. 4
Experimental: (§1) To produce (S)-LCAA from 2-oxonon-8-enoic acid, a reaction was performed under the following conditions. In 200 mL total volume and a buffered pH of 9.5, the aqueous reaction mixture contained 10 mM 2-oxonon-8-enoic acid, 12 mM glucose, 1 mM NAD^+, 50 mg of purified glucose dehydrogenase (GDH-105; Codexis, Redwood City, Calif.), 2 M NH4Cl/OH, and approximately 60 mL/L of purified leucine dehydrogenase cell-free extract. FIG. 2 depicts the reaction scheme for converting 2-oxonon-8-enoic acid to (S)-LCAA using leucine dehydrogenase. The mixture was incubated at 30° C. and with shaking at 150 rpm for four hours.
To determine what percentage of the LCAA reaction product of the reaction was (S)-LCAA, aliquots of the reaction mixture were analyzed using high performance liquid chromatography (HPLC).

[2] = Reductive amination of 2-oxonon-8-enoic acid to (S)-LCAA by leucine dehydrogenase (NADH consumption at 340 nm, HPLC of aliquots); format: biochemical; conditions: by four hours; 10 mM 2-oxonon-8-enoic acid, 2 M NH4Cl/OH, pH 9.5, 30° C., GDH/glucose NADH regeneration; FIG. 3
Experimental: as §1
Enzyme activity was measured spectrophotometrically by monitoring the consumption of NADH in the reductive amination at 340 nm. Activity was defined as the number of micromoles of NADH consumed in 1 minute (μmol min^−1). Aliquots of the reaction mixture were obtained periodically during the course of the reaction and subjected to analysis by high performance liquid chromatography (HPLC).
To increase the affinity of LDH for the 2-oxonon-8-enoic acid substrate and, thus, enhance the enzyme's activity for producing (S)-LCAA, amino acid substitutions were made within the region of LDH that binds to the substrate. Specifically, amino acid substitutions were introduced at position 42 of B. cereus leucine dehydrogenase (SEQ ID NO:1) using standard mutagenesis techniques. Wild-type B. cereus LDH, along with 19 variants (one for each amino acid substitution at position 42) were expressed and isolated as described in Example 1. The enzymatic activity of the variant proteins was evaluated alongside wild-type B. cereus LDH in the reaction described in Example 1. […] While the disclosure is not bound by any particular theory or mechanism of action, the substitutions that increased the enzymatic activity of the LDH enzyme are believed to have increased the depth of the substrate binding pocket in LDH and thereby increased the affinity of LDH for the 2-oxonon-8-enoic acid substrate.

B1: wild-type B. cereus LDH: wild-type B. cereus leucine dehydrogenase, amino acid sequence SEQ ID NO:1 (UniProt P0A392), cell-free extract from E. coli (protein, listed as Bacillus cereus)
chain: MTLEIFEYLEKYDYEQVVFCQDKESGLKAIIAIHDTTLGPALGGTRMWTYDSEEAAIEDALRLAKGMTYKNAAAGLNLGGAKTVIIGDPRKDKSEAMFRALGRYIQGLNGRYITAEDVGTTVDDMDIIHEETDFVTGISPSFGSSGNPSPVTAYGVYRGMKAAAKEAFGTDNLEGKVIAVQGVGNVAYHLCKHLHAEGAKLIVTDINKEAVQRAVEEFGASAVEPNEIYGVECDIYAPCALGATVNDETIPQLKAKVIAGSANNQLKEDRHGDIIHEMGIVYAPDYVINAGGVINVADELYGYNRERALKRVESIYDTIAKVIEISKRDGIATYVAADRLAEERIASLKNSRSTYLRNGHDIISRR
[1]
  percentage of the reaction product that was the (S)-enantiomer: greater than 99.5%
[2]
  conversion of the substrate to LCAA: greater than 99.5%
